According to the domain aggregation screens of Martell et al. (2025):

Test: soluble fraction after stress (log2 fold change); higher = more stays soluble; pooled small domains, quantitative proteomics
Details: stress: 50 degC
Summary of the method: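 Pooled custom libraries of small protein domains were each held under stress at 50°C. The read-out, high-throughput quantitative proteomics, tracked how much of each protein stayed soluble. This is reported as a base-two log fold change used to indicate aggregation propensity. Higher values mean more protein remains in solution.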

| Sequence | soluble fraction (log2) |
| --- | --- |
| HMYKIDFAEGDRVIIKGGAFSGLRATVVSLHPEKGMAKIKVYMFGDRETLVDIEVSQLEKDK | -0.348 |
| HMSSVEEILQTLGGRIRTQRLAQGISQQVLADRAGLSLGAVRQLEGSGQSGLDTLVRVLFVLGIVDEL | -2.21 |
| HMKKAMIISTKRGTPAAELDKIIREFEAKGLSVTMIRGTDYNVFGLVGDTTVIDEKQVRANPYVENVQRV | 0.135 |
| HMPVPSPAEQTATQLANIERHTGITVDGWTRAIAEAGAAKHGEIVAWLKQQGLTHGNANALAHAVRARQSG | 0.27 |
| HMGAKEHLAGETLRMAVELLSEKQGIPAEQALIRFISSPVYDALYDLDTGMWTQGPTRLLEAFEALE | -1.7 |
| HMDEILHHPSYRAIYEYMLDHKHVKTKDIAALLNVKEPRARQLLKEMIDKHFIIALGSNRNREYELL | -0.495 |
| HMYEPPTEDEKRVLSLLATRESIVRSDVDRLLGVSQSTANRILKQMIEKYLISQEGTGKNTKYIK | -0.0391 |
| HMEWVVVPDVRRQLLPEAQRRVNKARLRLEVAGGWPAEPLLAMVVDQKPGPETRVPLNSIVVVVVRNLP | -0.0473 |
| HMDIRMLLSDREEEIMILLSKGLSISEAANRMQIGQASAATYLNRARRKLKAETVRQAVAIWTGD | -1.75 |
| HMDLPDFTSRERDILARVVQGDSNERIAASLGVSVSTVKTHIGNILRKTGQTNRVRLIVWATRHL | -1.72 |
| HMLIPTISVTKEGQLRFENIPVSWEELGTRLRDVSDLDKIKIYADAESDALTISEIMKTAANVGIVQFVLV | -0.578 |
| HMGTISKRINPSGTTVYRAVIRIRKNGYPNFTESRTFSKKSMAAEWVKRREAEIELNPDILFG | -2.13 |
| HMGESFEELAREISDDTGSKTEGGETGLFPRGVMAPQFEEAAFLLKVGDISEPIRTKFGYHIIKLKEIKP | -0.156 |
| HMSSSKVAISQFEELVDQGQVREVVIEGSTATGTTAAGRRFAAEIPPGGMELFLSKLDDAGTTYEYSPP | ≥ 0.62 |
| HMPERLTYVHPDGAEPMRADKALAAFLSGRISRSRLLGSFSAGKVMAGGKPVEKKLLLRAGDALEVELPEP | 0.139 |
| HMYVVLYPGMARDEAVQVMNELQSRGIDYYEKNGNIYVPKTDENSLRMELANLGYPKTTNNYD | 0.0519 |
| HMSTLKSALDEIPGIGAARKRALLNHFGSTRVISSVGVKDLEQVEGVSKKIALLIYGYFHDK | -2.06 |
| HMKDYKTIFQELIQKKHKTSPIYKSYEYNDMFKAEVYVNDKSFADGIGKSKKEAETDAAKKALEKIEMA | 0.0966 |
| HMAGAITEREVEVLELLSRGLGNKEIAKELFVSEATVKSHLSHIYTKLAVDTRAGAVAAAIERRIIRAWR | -1.92 |
| HMTPDVAEFRERLRQILPGEQIEVRTANDGIVLSGTVSSIARLDAALQLAERYAPSRVSNLMSVG | 0.19 |
| HMQPFTELTPREREILGHLAEGQSNKVIARHLDISDGTVKLHVKAILRKLGVHSRVEAAVMAVEHGIR | -1.31 |
| HMRKPISQEIVDEVLKLAKNNPDWGYDRIAGVMKYLKYDVSATTVRHILDDNGIVPDPERRLR | 0.333 |
| HMSFVAYEEEKAIGMVRLIGDGGMSFYIKDFAVLPGHQGKGVGQMLLMELQQYLLEHKPADWAVSLE | -0.329 |
| HMFIPGDSVRVHVKVVEGSNERIQMFEGVVIARQGSGVRENFTVRRISYGVGIERTFPVHSPRL | 0.103 |
| HMTGGIWVQIQGAVERPGVYSLPRDSRLKDLLEAAGGFGRDADTEKVNQAARLEDGAMYRVPRQGEG | 0.352 |
| HMSDYVLLYSGLNTSDTTFLAYSFQEKGIRYKMPNPDEIEVRVQDVDQARRIAAGAQLGGQVS | -0.424 |

| Sequence | soluble fraction (log2) |
| --- | --- |
| HMDEEDVLNELIRRLALTADDRLLLSLSYEDGLSSRKIATLLETSAATVQRRLAGLHHQLEQALRVMGLA | -0.454 |
| HMNDTLQEYFEALERLKSNNPINVPKNTKINNDSVALEAGRKRGSIKKSREIFAELIEAINNAS | -0.0859 |
| HMPAFGALTLRQRDLVELIAQGLDNSQIAARLGLAEKTVRNHITMIFNKLEMENRSQVIVRARESGFGAVR | -1.53 |
| HMIFEEDILKEFRGSLIFITHDRRFLDNIATRIIELDRGKLLSFPGNFSAYKKAKNEQLANEAVENA | -0.446 |
| HMVREVGYNAFLAMLDSGAVKEVARDESEGQITFLATDEKGKERVYKTGIWPDDTLTERLNTAGVEFA | 0.178 |
| HMDLRVKRTNKMIMEAFIHLVEQKGYDNITVQEIADEAMINRATFYAHFKDKQDLYDHIFKQAI | -0.762 |
| HMTEEVIIQNYIGKNFNDVRDELEAKGITVDEPNMKYSDEFKENTIMAQSIKPGQPLKPGGFNSIKFDVS | 0.211 |
| HMPIDIEPVLQWIRDNSIDGIGPARSMYHSAAAAAGLPSYSSLQLRKWTWPLLLDAAGVQRR | -0.433 |
| HMSKIRSEINKFSSDADKPILEWLFERYHWASQWRFVARFSEQRYGVLSYEINRVWEPTIEGRALYDQL | -2.34 |
| HMSEFVIPLAKYNKALYTQVSLGMRFRMLFETEDSGVRRYMGTITGIGDLDPIRWKNSHWRNLQV | 0.111 |
| HMTVKKEIAKVKPTPLGWLRVRETPSLNGAEITKVNTGESYDVLDKETGWIKIKVSETVEGWVSDAYIELS | 0.236 |
| HMTPTRQATVSVAALNVREQPSLQGRRLGKLTQGTTLTVVGPPGEWLKIEYKGETGFVYASYTSLG | -1.59 |
| HMTLKVQLSEISKMVSLSYIAKKYFNKSQSWLSQRINGNTIHNKPAKFTSEELATLQFALKDIGNILNSTV | -2.8 |
| HMSGKWSILILHALEQGPKRFNVLHRELSGITQATLTKQLRQLEEDGIILRKAYPQIPPKVEYQLTEIG | -1.74 |
| HMPFTLDGVNEGSRNDQAARMSGYLISKNLNMDFIKFFMQSWNRQNSPPLSQREINSVVDNVKRTHDRKNK | -1.18 |
| HMTKYKEIVDQLRTNIYEGVFPALSKLPEQTALAKRFQTSRMTIQKALNQLKQEGLISTKRGHGTYVNSAT | -0.298 |
| HMGSFDDAPDQLRQSILQLLAEGPLPPSAITERLNISREDATEALQQLLDEQRIFAVNGMLQLQPG | -0.0107 |
| HMPLVIIRGIEGVFSSEEKAEAIRKVTDALVSVKGENVRGFAWVVFEEVKSGDWGIGGESITAEKVIMSL | -0.0828 |
| HMQNNITISKEIELRTGPDDTYPTLKKVTAGDNVEMLSKSDTWYEIKTNDSFVGWVPGWSIL | 0.0818 |
| HMWWTPIILRDALFGVQRFEDFQKNLDVSRATLSSRLTRLVDEGLMEKVEYQQHPVRHEYVLTEKGR | -0.108 |
| HMDNEVTIAVQVNGKLRDKLIVALDTPNEKIEQLALALPKVIQNTSGLTVRKVIVIPNRLVNIVA | -0.171 |
| HMSDEVNTDKAFRAIDSTLNRNVKGIAPRDHTLLRNTMITYFKSNDYIDYDTMIQSTLENYKPTELEQDKM | 0.165 |
| HMEIPTEEILKQKLYYSISEVASWFKVNTSLLRYWENEFDILQPRKTRKGDRLFRVEDIKNLQLIYLL | 0.107 |
| HMQETKDEGAQVLLNKINALVAAVQGQIITPEEAAIKLATDGDLDLDVDARVAAIEEFNKKLSEAQNN | 0.0497 |
| HMNQIDDADRKRVVDEVAGQFSSMSLTEMRSDREKLLSRIIPQVQTTLNRLGLQTIDVEGIAREVIARVG | 0.159 |
| HMDAISYTQFMEEAKQGRINKVEVQGRTLMVTPTDGKAYSLTSPGDLWMTTDLMKYGVNVYGAE | -0.00324 |

| Sequence | soluble fraction (log2) |
| --- | --- |
| HMGNLASRVAEQLLDKMRGDSLVPGTRLPSEIAMAKHFGVSRTVMREAIARLKADGLLETRRGSGAFVLAT | -0.664 |
| HMLPDVSITGHIFIRSGSRLNRIFVGESTYHVGDMLDGKWLIESINSDSLELRSGTQTTELPL | -2.58 |
| HMPSALGDKIRAARKALKLSLEDLAEKVSSSKSYMWELENRDEPNPGADLLMRIAAALNVTTEHLLGP | -0.0736 |
| HMDLPDYYFRVRENGAVVFRVGTENRQRRIEMVEIATVNVKNGNIKPHGEVDLTKADRLAIGEWLAARQAQ | -1.36 |
| HMVITQVSTTQTDTTFQYHKVKPKETLFSISRLYEVSIDEIKTINPALNSRELMAGELLKLPIK | -0.0212 |
| HMRRRTLRQGATGSDVHAVQRLLNVDGAGLRTDGIFGPATERAVIAYQRKHGLAVDGVVGRETWTALLG | -0.61 |
| HMVTTTEAAKMLLVNAGHDVIKDGLTGASWASNTMKLADADGLLASVATKPNDALPRQYAAQMIYN | 0.076 |
| HMKITKIWFTADHIFGRDEEGKEYSQSLLWYPKLSAASDEERSQYTFGYDGIHWRSLDEDISFESF | -3.98 |
| HMSSEITYDKFIEMVEEGNVKEVTLQSDTLTIKPKHQDSAFSEKEYYTRQMESADQLTERLEGTGIEFHS | 0.104 |
| HMTSESWAEKSRSLAAAGLIVMGRDAQLKIEGLTNLDPLIEAATASSTRLLTGQTIDELLTIVP | -0.265 |
| HMDPSKLVEVQEPVSMKALSEGLGIKVTELIATFAFKLKIGGKNINSMLSNDEVELVALDLERNIKVV | 0.164 |
| HMSQIANLLLSKNIKVNNQNIIYYETVLKYLPNNEKKEFFINAMKNNIYFTEEEIKNFGNIFN | -1.66 |
| HMISSRDAAVIGLVENIQRAQLNAIDESSGFKHLMETYNLESKEIALLVGKSRSYVSNSLRLSK | -0.0196 |
| HMGRMTRKDRALATDLYGRIVGNVDDFHEGRIDYETFSERQRGLWTTLDAAGPEVKRAVLADIRERL | -0.187 |
| HMEGIAYDINTAPEHIDLKAEDMMATFNIGKTALWRWVKQKILPPPYEYRSQAAHWTIGQIRDWKTA | -0.0672 |
| HMSLQDYYQVLGVFYNAGDKEIKRRWKELINQYHPDLAQAKGASPEEIENYTLKMAEINNAYEQIMKSRKA | 0.0274 |
| HMEDSHIYPVSFNGKMRFKLELPVSMNKKEIEEVVLQHEDAQKWLNGQNPKKVIVVPKRIINIV | 0.0081 |
| HMPRVLSSYTLTLRHQPTAEAVALVRTLLSPAGSVEVKEDGRTLVVRDELAALSRIVGALRSFDH | -0.404 |
| HMAEMRYLDQIYEVNVPLPDLSLEDGDLLARWAVNFHQRYEELFSYRQSDQEIRLVTLRVTVLGELP | -0.653 |
| HMISASDLQTYLKGMDYPARKEDLIVHAQRNNAPESVIAAIRQFSDRTYQSAADVSEEFGKI | 0.19 |
| HMDLKENQHILQISNKGVQMGNVLKDLIIQTLNITNGNQIKAAKLLAISRAKLRYRIEQLGINISGKNI | -0.215 |
| HMLVSPLDEIPGIGRNRKKTLLNHFGSAKTIEGASLEDLKKVDGISELIAKKIYNYFHLNKNF | -0.411 |
| HMGQAEEVRYSTFLDEVRNGRIEQVVLQGEHIIGTRKDKTVFSVFNPETDYTALIGTLSKSGVTIEGRP | 0.081 |
| HMKVLNVLESEIVRLFKQGQQKDNIRDNIYKTHGQHYNNKKSFNVVFGRKWNSLLEQGFLES | -0.595 |
